US20170291955A1 (AstraZeneca / MedImmune, published 2017)

T1: human HER4 recombinant extracellular domain protein (human, UniProt Q15303 26-651)
T1 construct: extracellular domain
T1 sequence (looked up): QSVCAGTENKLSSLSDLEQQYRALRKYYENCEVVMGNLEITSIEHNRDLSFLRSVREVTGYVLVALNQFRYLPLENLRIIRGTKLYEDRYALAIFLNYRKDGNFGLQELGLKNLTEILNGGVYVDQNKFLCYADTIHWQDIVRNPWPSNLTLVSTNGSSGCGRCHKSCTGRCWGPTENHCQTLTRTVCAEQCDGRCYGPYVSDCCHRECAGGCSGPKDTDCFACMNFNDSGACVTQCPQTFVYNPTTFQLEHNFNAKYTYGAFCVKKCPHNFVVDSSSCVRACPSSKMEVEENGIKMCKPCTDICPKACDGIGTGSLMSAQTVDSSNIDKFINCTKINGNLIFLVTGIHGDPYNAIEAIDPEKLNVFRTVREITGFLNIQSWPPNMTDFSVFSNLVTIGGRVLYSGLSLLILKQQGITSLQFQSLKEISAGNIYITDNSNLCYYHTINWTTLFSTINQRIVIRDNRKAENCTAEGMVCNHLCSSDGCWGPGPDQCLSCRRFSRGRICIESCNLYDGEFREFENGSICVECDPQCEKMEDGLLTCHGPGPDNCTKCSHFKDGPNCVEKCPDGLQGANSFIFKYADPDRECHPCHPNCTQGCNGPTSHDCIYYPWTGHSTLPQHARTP


Experiments:
[1] = biological target: Human Her2 (control of Table 4) (human, UniProt P04626 23-652); assay: SPR (ProteOn XPR36), human Her2 captured by anti-Her2 polyclonal antibody, 39S injected; apparent affinity
Experimental: (§1) The chimeric variant nomenclature denotes types of variants (KO/KI) and the number of domains swapped. […] The expression of the variants was monitored by anti-His polyclonal antibody using ProteOn™.
(§2) Standard amine coupling was used to immobilize an anti-human or mouse Her2 polyclonal antibody (R&D System) in 10 mM sodium acetate (pH 5.0) to the surface of a GLC biosensor chip at ˜5000 resonance units (RU) for each channel. The chimeric proteins in cell culture supernatant were injected and captured by anti-human or mouse polyclonal antibodies onto the GLC surface with a ˜200 RU response. […] The surface was regenerated twice by injecting glycine buffer (10 mM, pH 1.5) at 100 μL/min for 30 sec. All sensorgram data were processed with the ProteOn™ Manager 3.0.1 software.

[2] = biological target: T2, recombinant human HER2 extracellular domain protein (human, UniProt P04626 23-652); assay: BIAcore KD of 39S against the reported KD of 1.39.1
KO_192-208 = biological target: T3, KO_192-208 (human; mouse, UniProt P70424 215-231); assay: SPR (ProteOn XPR36), variant captured by anti-Her2 polyclonal antibody, 39S injected
T3 construct: domain: counterpart of human amino acids 192-208
Experimental: as §1, §2

KO_146-208 = biological target: T4, KO_146-208 (human; mouse, UniProt P70424 169-231); assay: as above
T4 construct: domain: counterpart of human amino acids 146-208
Experimental: as §1, §2

[3] = biological target: T2, recombinant human HER2 extracellular …; assay: BIAcore (SPR), format not stated
human HER2 on cells = biological target: T5, human HER2 on cells (human, UniProt P04626 23-1255); assay: FACS competition on BT-474 cells; competitor: fluorescently labelled 39S at 2 µg/mL; unlabelled antibody titrated
T5 construct: whole, on cells; also called HER2 on BT-474 cells; HER2 on T47D cells
Experimental: BT-474 cells were harvested, resuspended in FACS buffer, and 2.5×10⁵ cells/well were added to a 96-well U-bottom plate. […] After 1 hour of staining on ice, cells were washed 3 times with ice-cold FACS buffer and then fixed with 2% PFA. Cells were analyzed by a BD LSR II machine with BD FACSDiva™ software. Data were analyzed with FlowJo software and presented as mean MFI±SEM (n=3).

KO_159-162 = biological target: T6, KO_159-162 (human; mouse, UniProt P70424 182-185); assay: SPR (ProteOn XPR36), variant captured by anti-Her2 polyclonal antibody, 39S injected; apparent affinity
T6 construct: domain: counterpart of human amino acids 159-162
Experimental: as §1, §2

KO_250-261 = biological target: T7, KO_250-261 (human; mouse, UniProt P70424 273-284); assay: as above
T7 construct: domain: counterpart of human amino acids 250-261
Experimental: as §1, §2

KO_295-296 = biological target: T8, KO_295-296 (human; mouse, UniProt P70424 318-319); assay: as above
T8 construct: domain: counterpart of human amino acids 295-296
Experimental: as §1, §2

KO_276-285 = biological target: T9, KO_276-285 (human; mouse, UniProt P70424 299-308); assay: as above
T9 construct: domain: counterpart of human amino acids 276-285
Experimental: as §1, §2

KO_171-187 = KO_171-187 (human; mouse, UniProt P70424 194-210); assay: as above
Experimental: as §1, §2

[4] = biological target: T10, human EGFR recombinant extracellular domain protein (human, UniProt P00533 25-645); assay: capture ELISA on coated recombinant extracellular domain protein
T10 construct: extracellular domain
Experimental: (§3) Antibody to be tested was prepared by diluting in a stepwise 1:3 serial dilution ranging from 50 nM down to 0.28 pM and then added to the wells in duplicate. After one hour of incubation, plates were washed, and goat anti-human IgG Fab HRP-conjugated secondary antibody was added to each well and the plates were incubated for 1 hour. The plates were washed and TMB substrate was added and incubated for 5-20 min to allow color development. The stop solution was added to the wells at the end of reaction and the plates were read at 450 nm. Binding signal (absorbance at 450 nm) was plotted against antibody concentration using Prism software.

[5] = biological target: T1, human HER4 recombinant extracellular …; assay: as above
Experimental: as §3

[6] = biological target: T11, human HER3 recombinant extracellular domain protein (human, UniProt P21860 20-643); assay: as above
T11 construct: extracellular domain
Experimental: as §3

[7] = biological target: T12, mouse Her2 recombinant extracellular domain protein (mouse, UniProt P70424 23-653); assay: as above
T12 construct: extracellular domain
Experimental: as §3

Row | Binder | Kd [1] [nM] | fold increase in binding affinity over the parental antibody (1.39.1) [2] [fold] | binding result (KO_192-208) | binding result (KO_146-208) | Kd [3] [nM] | IC50 (read off the curve) (human HER2 on cells) [µg/mL] | Kd (KO_159-162) [nM] | Kd (KO_250-261) [nM] | Kd (KO_295-296) [nM] | Kd (KO_276-285) [nM] | Kd (KO_171-187) [nM] | binding result [4] | binding result [5] | binding result [6] | binding result [7]
1 | 39S antibody (antibody, V domains shown, also called lead optimized 39S antibody (LO); anti-HER2 mAb 39S) VH: EVQLVESGGGLVKPGGSLRLSCAASGFTFSSYSMSWVRQAPGKGLEWVSSISSSSSYIYYADSVKGRFTISRDNAKNSLYLQMNSLRAEDTAVYYCARGGDAYNYYYFDYWGQGTLVTVSS VL: DIVMTQTPLSLSVTPGQPASISCKSSQSVFFRSNNKNILAWYLQKPGQPPQLLIYWASSRESGVPDRFSGSGSGTDFTLKISRVEAEDVGVYYCQQYFGSPFTFGPGTKVDIK | 0.084 | 2 | no binding | no binding | ~1 | ~3 | 0.101 | 0.187 | 0.0847 | 0.106 | 0.038 | no binding (tested: 50 nM (highest concentration tested)) | no binding (tested: 50 nM (highest concentration tested)) | no binding (tested: 50 nM (highest concentration tested)) | 
2 | AZ1.39.1 (antibody, V domains shown) VH: EVQLVESGGGLVKPGGSLRLSCAASGFTFSSYSMNWVRQAPGKGLEWVSSISSSSSYIYYADSVKGRFTISRDNAKNSLYLQMNSLRAEDTAVYYCARGGDGYNYYYFDYWGQGTLVTVSS VL: DIVMTQSPDSLAVSLGERATITCKSSQSVFFRSNNKNCLAWYQQRPGQPPNLLIYWASSRESGVPDRFSGSGSGTDFALTISSLQTEDVAVYYCQQYFGSPFTFGPGTKVDIK |  |  |  |  |  | ~5 |  |  |  |  |  | no binding | no binding | no binding | no binding
